According to article PMC8760513, “Mechanistic details of the actinobacterial lyase-catalyzed degradation reaction of 2-hydroxyisobutyryl-CoA” (The Journal of Biological Chemistry, 2021):

These proteins were tested on CC(C)(O)C(=O)SCCNC(=O)CCNC(=O)[C@H](O)C(C)(C)COP(=O)(O)OP(=O)(O)OC[C@H]1O[C@@H](n2cnc3c(N)ncnc32)[C@H](O)[C@@H]1OP(=O)(O)O (assay: purified protein). Details: lyase direction, 37 °C, pH 7.2, 100 mM potassium phosphate, 10% glycerol, 0.2 mM ThDP, 0.2 mM ADP, 5 mM MgCl2, complex structure with dzThDP.

Protein | Km | Vmax | kcat | kcat/Km
AcHACL (Actinomycetospora chiangmaiensis DSM 45062) (protein) MADRQDAERSGAGPARQSVPVASLVAEFLQEHGVDRVFGLQGGHIQPIWDQLARRGVRIVDVRDEGSAVHMAHAHTELTGQTAVAMVTAGPGVTNTVTAVANASVSRIPLLVIGGCPPIPQSNMGPLQDIPHTAILEPITRLARTLRSADQVLREFDEAWARASGDRGEPGPVYLEIPTDVLRRDVPPALQMREHLRAKPKRRPQPHPDDVAAVADLIRAAEKPAIISGRGARTTDGTDLVRLLDASGAAYLDTQESRGLVPDSHPAAVGSARSAVMRDTDLLITVGRQLDYQLGMGSPAVFPHAKVVRIADTASELIDNRRGEVEILAEPGAALAAIADALKDHTPDTSWRDELKAKHRKRAEDYRQALHSTENGADGHIHPNRIFGALDALDGDVLDLGETIMIADGGDLLSFGRLGITKARRYLDAGAFGCLGVATPFAIGAALAYPDRPVVAVTGDGAFGITATEIDTAVRHDAKIVVIVSNNRAWNIERYDQAENYGLVVGTDLADSDYAGVARAFGAHGERVTDPAELEGAIRRALANAPALVDVVTTQDAASPDSGKGLGFVPDYQALTPWNDAEVARRQEGI | 120 ± 12 µM | 1.2 µmol/min/mg | 1.3 s⁻¹ | 11000 M⁻¹ s⁻¹
AcHACL (Actinomycetospora chiangmaiensis DSM 45062; E493A) (protein) MADRQDAERSGAGPARQSVPVASLVAEFLQEHGVDRVFGLQGGHIQPIWDQLARRGVRIVDVRDEGSAVHMAHAHTELTGQTAVAMVTAGPGVTNTVTAVANASVSRIPLLVIGGCPPIPQSNMGPLQDIPHTAILEPITRLARTLRSADQVLREFDEAWARASGDRGEPGPVYLEIPTDVLRRDVPPALQMREHLRAKPKRRPQPHPDDVAAVADLIRAAEKPAIISGRGARTTDGTDLVRLLDASGAAYLDTQESRGLVPDSHPAAVGSARSAVMRDTDLLITVGRQLDYQLGMGSPAVFPHAKVVRIADTASELIDNRRGEVEILAEPGAALAAIADALKDHTPDTSWRDELKAKHRKRAEDYRQALHSTENGADGHIHPNRIFGALDALDGDVLDLGETIMIADGGDLLSFGRLGITKARRYLDAGAFGCLGVATPFAIGAALAYPDRPVVAVTGDGAFGITATEIDTAVRHDAKIVVIVSNNRAWNIARYDQAENYGLVVGTDLADSDYAGVARAFGAHGERVTDPAELEGAIRRALANAPALVDVVTTQDAASPDSGKGLGFVPDYQALTPWNDAEVARRQEGI | 21 ± 4 µM | 0.098 µmol/min/mg | 0.11 s⁻¹ | 5100 M⁻¹ s⁻¹
AcHACL (Actinomycetospora chiangmaiensis DSM 45062; E493Q) (protein) MADRQDAERSGAGPARQSVPVASLVAEFLQEHGVDRVFGLQGGHIQPIWDQLARRGVRIVDVRDEGSAVHMAHAHTELTGQTAVAMVTAGPGVTNTVTAVANASVSRIPLLVIGGCPPIPQSNMGPLQDIPHTAILEPITRLARTLRSADQVLREFDEAWARASGDRGEPGPVYLEIPTDVLRRDVPPALQMREHLRAKPKRRPQPHPDDVAAVADLIRAAEKPAIISGRGARTTDGTDLVRLLDASGAAYLDTQESRGLVPDSHPAAVGSARSAVMRDTDLLITVGRQLDYQLGMGSPAVFPHAKVVRIADTASELIDNRRGEVEILAEPGAALAAIADALKDHTPDTSWRDELKAKHRKRAEDYRQALHSTENGADGHIHPNRIFGALDALDGDVLDLGETIMIADGGDLLSFGRLGITKARRYLDAGAFGCLGVATPFAIGAALAYPDRPVVAVTGDGAFGITATEIDTAVRHDAKIVVIVSNNRAWNIQRYDQAENYGLVVGTDLADSDYAGVARAFGAHGERVTDPAELEGAIRRALANAPALVDVVTTQDAASPDSGKGLGFVPDYQALTPWNDAEVARRQEGI | 79 ± 7 µM | 0.025 µmol/min/mg | 0.03 s⁻¹ | 340 M⁻¹ s⁻¹
